The source of these data is article PMC6555819, “Comprehensive study of nuclear receptor DNA binding provides a revised framework for understanding receptor specificity”.

Sequences and labels used below:
B1: NRC3_wobSeed65_DR2_C25G_o1 (dsDNA)
DNA 1: GCATATGTAGGTTATCGGGTCATTGAGTTTGCGCATGCGATTGACAGCGTAGAATGAAGG
DNA 2: CCTTCATTCTACGCTGTCAATCGCATGCGCAAACTCAATGACCCGATAACCTACATATGC
B2: NRC3_wobSeed65_DR2_C16G_o1 (dsDNA)
DNA 1: GCATATGTAGGTTATGGGGTCATTCAGTTTGCGCATGCGATTGACAGCGTAGAATGAAGG
DNA 2: CCTTCATTCTACGCTGTCAATCGCATGCGCAAACTGAATGACCCCATAACCTACATATGC
B3: NRC3_wobSeed61_DR2_T24G_o1 (dsDNA)
DNA 1: GCCGTCCAAGGTCAGCAGGTCAGGGAAAGCGACGTGGCGATTGACAGCGTAGAATGAAGG
DNA 2: CCTTCATTCTACGCTGTCAATCGCCACGTCGCTTTCCCTGACCTGCTGACCTTGGACGGC
B4: NRC3_wobSeed61_DR2_G25A_o1 (dsDNA)
DNA 1: GCCGTCCAAGGTCAGCAGGTCAGTAAAAGCGACGTGGCGATTGACAGCGTAGAATGAAGG
DNA 2: CCTTCATTCTACGCTGTCAATCGCCACGTCGCTTTTACTGACCTGCTGACCTTGGACGGC
B5: NRC3_wobSeed61_DR2_o1 (dsDNA)
DNA 1: GCCGTCCAAGGTCAGCAGGTCAGTGAAAGCGACGTGGCGATTGACAGCGTAGAATGAAGG
DNA 2: CCTTCATTCTACGCTGTCAATCGCCACGTCGCTTTCACTGACCTGCTGACCTTGGACGGC
B6: NRC3_wobSeed61_DR2_G4C_o1 (dsDNA)
DNA 1: GCCCTCCAAGGTCAGCAGGTCAGTGAAAGCGACGTGGCGATTGACAGCGTAGAATGAAGG
DNA 2: CCTTCATTCTACGCTGTCAATCGCCACGTCGCTTTCACTGACCTGCTGACCTTGGAGGGC
B7: NRC3_wobSeed119_DR4_C7A_o1 (dsDNA)
DNA 1: GCGGAAAGAGGGCATTCGAGTTGATAGCATGGCGATGCGATTGACAGCGTAGAATGAAGG
DNA 2: CCTTCATTCTACGCTGTCAATCGCATCGCCATGCTATCAACTCGAATGCCCTCTTTCCGC
B8: NRC3_wobSeed76_DR3_C12T_o1 (dsDNA)
DNA 1: GCCCTACTGGGTCAAAAAGGTCATTGATGCCGATAAGCGATTGACAGCGTAGAATGAAGG
DNA 2: CCTTCATTCTACGCTGTCAATCGCTTATCGGCATCAATGACCTTTTTGACCCAGTAGGGC
B9: NRC3_wobSeed50_DR2_G7A_o1 (dsDNA)
DNA 1: GCCCTAATTGGTCAGGAGGTCACACACCGGATATGAGCGATTGACAGCGTAGAATGAAGG
DNA 2: CCTTCATTCTACGCTGTCAATCGCTCATATCCGGTGTGTGACCTCCTGACCAATTAGGGC
B10: NRC3_wobSeed86_DR3_T8G_o1 (dsDNA)
DNA 1: GCGCTGCGAGGTCAGGTTGGTCAGCTAACGGGTACGGCGATTGACAGCGTAGAATGAAGG
DNA 2: CCTTCATTCTACGCTGTCAATCGCCGTACCCGTTAGCTGACCAACCTGACCTCGCAGCGC
B11: NRC3_wobSeed72_DR2_A6C_o1 (dsDNA)
DNA 1: GCTCGCGTAGGTTACGGGGGCATTCAGGGATGAAGAGCGATTGACAGCGTAGAATGAAGG
DNA 2: CCTTCATTCTACGCTGTCAATCGCTCTTCATCCCTGAATGCCCCCGTAACCTACGCGAGC
B12: NRC3_wobSeed21_DR0_T5A_o1 (dsDNA)
DNA 1: GCCGACAAAGTTCAAGGTAACGTAACAGAAAGCAGCGCGATTGACAGCGTAGAATGAAGG
DNA 2: CCTTCATTCTACGCTGTCAATCGCGCTGCTTTCTGTTACGTTACCTTGAACTTTGTCGGC
B13: NRC3_wobSeed69_DR2_T5A_o1 (dsDNA)
DNA 1: GCAGACAAAGTTCACTAGGTAACGTAAGATTCAGCTGCGATTGACAGCGTAGAATGAAGG
DNA 2: CCTTCATTCTACGCTGTCAATCGCAGCTGAATCTTACGTTACCTAGTGAACTTTGTCTGC
B14: NRC3_wobSeed2_DR0_A22T_o1 (dsDNA)
DNA 1: GCCCTAGTTGGTCAAGGTCACTCACGCTATAGGTACGCGATTGACAGCGTAGAATGAAGG
DNA 2: CCTTCATTCTACGCTGTCAATCGCGTACCTATAGCGTGAGTGACCTTGACCAACTAGGGC
B15: NRC3_wobSeed95_DR3_G22T_o1 (dsDNA)
DNA 1: GCAGAACGAGGGCAATGAGTTTATAGCACGGGTGGCGCGATTGACAGCGTAGAATGAAGG
DNA 2: CCTTCATTCTACGCTGTCAATCGCGCCACCCGTGCTATAAACTCATTGCCCTCGTTCTGC
B16: NRC3_wobSeed95_DR3_A9G_o1 (dsDNA)
DNA 1: GCAGAACGGGGGCAATGAGTTGATAGCACGGGTGGCGCGATTGACAGCGTAGAATGAAGG
DNA 2: CCTTCATTCTACGCTGTCAATCGCGCCACCCGTGCTATCAACTCATTGCCCCCGTTCTGC
B17: NRC3_wobSeed92_DR3_A20T_o1 (dsDNA)
DNA 1: GCAGAATGAGGTTATTAAGTTCAGGGAATTGCGGTCGCGATTGACAGCGTAGAATGAAGG
DNA 2: CCTTCATTCTACGCTGTCAATCGCGACCGCAATTCCCTGAACTTAATAACCTCATTCTGC
B18: NRC3_wobSeed92_DR3_A20G_o1 (dsDNA)
DNA 1: GCAGAATGAGGTTATTAAGGTCAGGGAATTGCGGTCGCGATTGACAGCGTAGAATGAAGG
DNA 2: CCTTCATTCTACGCTGTCAATCGCGACCGCAATTCCCTGACCTTAATAACCTCATTCTGC
B19: NRC3_wobSeed22_DR0_T25C_o1 (dsDNA)
DNA 1: GCTTACCAAGGTGAAGGTCGTTGACCCCTCTGTAGAGCGATTGACAGCGTAGAATGAAGG
DNA 2: CCTTCATTCTACGCTGTCAATCGCTCTACAGAGGGGTCAACGACCTTCACCTTGGTAAGC
B20: NRC3_wobSeed133_DR5_G21T_o1 (dsDNA)
DNA 1: GCCGTCCAAGGTCAATGCTATGTCAGTGAAAGCATTGCGATTGACAGCGTAGAATGAAGG
DNA 2: CCTTCATTCTACGCTGTCAATCGCAATGCTTTCACTGACATAGCATTGACCTTGGACGGC
B21: NRC3_wobSeed66_DR2_o1 (dsDNA)
DNA 1: GCAATACAGGGTCACTAGGCCAGAGTAGGTACGAATGCGATTGACAGCGTAGAATGAAGG
DNA 2: CCTTCATTCTACGCTGTCAATCGCATTCGTACCTACTCTGGCCTAGTGACCCTGTATTGC
B22: NRC3_wobSeed66_DR2_G9A_o1 (dsDNA)
DNA 1: GCAATACAAGGTCACTAGGCCAGAGTAGGTACGAATGCGATTGACAGCGTAGAATGAAGG
DNA 2: CCTTCATTCTACGCTGTCAATCGCATTCGTACCTACTCTGGCCTAGTGACCTTGTATTGC
B23: NRC3_wobSeed94_DR3_G13T_o1 (dsDNA)
DNA 1: GCCTACCAAGGTTAACAAGGTCGTTGATTACTATTCGCGATTGACAGCGTAGAATGAAGG
DNA 2: CCTTCATTCTACGCTGTCAATCGCGAATAGTAATCAACGACCTTGTTAACCTTGGTAGGC
B24: NRC3_wobSeed94_DR3_A17G_o1 (dsDNA)
DNA 1: GCCTACCAAGGTGAACGAGGTCGTTGATTACTATTCGCGATTGACAGCGTAGAATGAAGG
DNA 2: CCTTCATTCTACGCTGTCAATCGCGAATAGTAATCAACGACCTCGTTCACCTTGGTAGGC
B25: NRC3_wobSeed74_DR3_G16C_o1 (dsDNA)
DNA 1: GCTCTAGTTGGTCACCGAGGTCACACACGACGGGTAGCGATTGACAGCGTAGAATGAAGG
DNA 2: CCTTCATTCTACGCTGTCAATCGCTACCCGTCGTGTGTGACCTCGGTGACCAACTAGAGC
B26: NRC3_wobSeed74_DR3_G20T_o1 (dsDNA)
DNA 1: GCTCTAGTTGGTCACGGAGTTCACACACGACGGGTAGCGATTGACAGCGTAGAATGAAGG
DNA 2: CCTTCATTCTACGCTGTCAATCGCTACCCGTCGTGTGTGAACTCCGTGACCAACTAGAGC
B27: NRC3_wobSeed41_DR1_C24G_o1 (dsDNA)
DNA 1: GCATATGTAGGTTAAGGGTCATTGAGGTTGGTTCGCGCGATTGACAGCGTAGAATGAAGG
DNA 2: CCTTCATTCTACGCTGTCAATCGCGCGAACCAACCTCAATGACCCTTAACCTACATATGC
B28: NRC3_wobSeed124_DR5_C17T_o1 (dsDNA)
DNA 1: GCCCTACTGGGCCATTTAGAGGTCATTGATCATATGGCGATTGACAGCGTAGAATGAAGG
DNA 2: CCTTCATTCTACGCTGTCAATCGCCATATGATCAATGACCTCTAAATGGCCCAGTAGGGC
B29: NRC3_wobSeed124_DR5_A29G_o1 (dsDNA)
DNA 1: GCCCTACTGGGCCATTCAGAGGTCATTGGTCATATGGCGATTGACAGCGTAGAATGAAGG
DNA 2: CCTTCATTCTACGCTGTCAATCGCCATATGACCAATGACCTCTGAATGGCCCAGTAGGGC
B30: NRC3_wobSeed101_DR4_o1 (dsDNA)
DNA 1: GCCCTTACGGGTCACTCCAGGTTATAGCATCGGAGTGCGATTGACAGCGTAGAATGAAGG
DNA 2: CCTTCATTCTACGCTGTCAATCGCACTCCGATGCTATAACCTGGAGTGACCCGTAAGGGC
B31: NRC3_wobSeed113_DR4_A14C_o1 (dsDNA)
DNA 1: GCATATGTAGGTTCGCTGGGGTCATTCAGACTAGGCGCGATTGACAGCGTAGAATGAAGG
DNA 2: CCTTCATTCTACGCTGTCAATCGCGCCTAGTCTGAATGACCCCAGCGAACCTACATATGC

Chain of VDR:RXRa (P11473 whole entry, chain 1 of 2): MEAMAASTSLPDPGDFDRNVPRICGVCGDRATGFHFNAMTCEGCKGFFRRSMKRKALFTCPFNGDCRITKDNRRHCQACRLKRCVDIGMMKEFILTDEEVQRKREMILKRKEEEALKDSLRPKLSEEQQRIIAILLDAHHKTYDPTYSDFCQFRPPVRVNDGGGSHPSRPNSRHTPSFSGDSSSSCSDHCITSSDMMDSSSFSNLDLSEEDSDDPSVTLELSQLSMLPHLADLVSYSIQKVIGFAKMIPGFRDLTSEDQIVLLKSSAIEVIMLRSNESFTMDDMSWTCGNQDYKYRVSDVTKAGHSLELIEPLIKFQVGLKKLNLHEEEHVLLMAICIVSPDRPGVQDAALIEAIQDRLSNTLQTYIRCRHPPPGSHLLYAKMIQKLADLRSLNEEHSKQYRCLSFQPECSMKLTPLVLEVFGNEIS
Chain of VDR:RXRa (P19793 whole entry, chain 2 of 2): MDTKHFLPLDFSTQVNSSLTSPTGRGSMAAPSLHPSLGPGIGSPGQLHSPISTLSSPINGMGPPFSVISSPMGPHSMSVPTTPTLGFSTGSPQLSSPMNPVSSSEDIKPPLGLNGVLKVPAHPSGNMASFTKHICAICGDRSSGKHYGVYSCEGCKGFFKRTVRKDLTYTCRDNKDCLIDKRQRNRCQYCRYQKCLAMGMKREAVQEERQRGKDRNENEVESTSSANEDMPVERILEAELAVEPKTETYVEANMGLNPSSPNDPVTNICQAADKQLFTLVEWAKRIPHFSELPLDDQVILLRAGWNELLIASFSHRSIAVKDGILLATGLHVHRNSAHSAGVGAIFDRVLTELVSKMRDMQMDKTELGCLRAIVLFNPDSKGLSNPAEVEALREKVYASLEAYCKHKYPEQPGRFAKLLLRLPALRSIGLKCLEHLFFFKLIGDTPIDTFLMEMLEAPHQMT

The data set addresses VDR:RXRa (Homo sapiens, UniProt P11473;P19793 full;full). Description: no ligand; PBM; 270 nM : 90 nM RXRa; PBS pH 7.4, 2% milk, 0.02% Triton X-100, 1 mM DTT, BSA, 0.4 mg/ml salmon testes DNA. To be noted: tags: His kept;His cleaved; copies: 1;1; label: surface-attached array probe. The method, boiled down: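 For binding z-scores, the reference was random background probes on custom Agilent 4×180K protein-binding microarrays. These arrays were incubated 1 h with ligand-free nuclear receptor dimers in PBS pH 7.4, 2% milk, 0.02% Triton X-100, 1 mM DTT, 0.2 mg/mL BSA and 0.4 mg/ml salmon testes DNA. Fluorescence was scanned after antibody detection of each partner (one per run) and regression-normalized.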
In the case of B1, the binding signal is 6.9 PBM z-score against 500 random probes.
For the molecule B2, the binding signal is 6.73 PBM z-score against 500 random probes.
Next, B3: 4.03 PBM z-score against 500 random probes; B4: 4 PBM z-score against 500 random probes.
To B5 belongs 3.97 PBM z-score against 500 random probes; to B6, 3.8 PBM z-score against 500 random probes; to B7, 4.08 PBM z-score against 500 random probes.
Next, B8: 6.93 PBM z-score against 500 random probes; B9: 3.96 PBM z-score against 500 random probes; B10: 3.78 PBM z-score against 500 random probes.
As to B11, the binding signal is 3.92 PBM z-score against 500 random probes.
For the molecule B12, the binding signal is 3.74 PBM z-score against 500 random probes.
Consider B13, for which the binding signal is 3.85 PBM z-score against 500 random probes.
Next, B14: 3.83 PBM z-score against 500 random probes; B15: 6.73 PBM z-score against 500 random probes.
Take B16: the binding signal is 6.59 PBM z-score against 500 random probes.
Next, B17: 6.9 PBM z-score against 500 random probes; B18: 6.76 PBM z-score against 500 random probes.
As for B19, the binding signal was 4.04 PBM z-score against 500 random probes.
To B20 belongs 3.76 PBM z-score against 500 random probes; to B21, 4.15 PBM z-score against 500 random probes.
To B22 belongs 4.1 PBM z-score against 500 random probes.
For B23, the binding signal was 6.93 PBM z-score against 500 random probes.
Next, B24: 6.62 PBM z-score against 500 random probes; B25: 6.63 PBM z-score against 500 random probes.
Next, B26: 6.57 PBM z-score against 500 random probes; B27: 6.5 PBM z-score against 500 random probes; B28: 3.9 PBM z-score against 500 random probes.
On to B29, for which the binding signal was 3.87 PBM z-score against 500 random probes.
On to B30, for which the binding signal is 4.06 PBM z-score against 500 random probes.
On to B31, for which the binding signal is 7.03 PBM z-score against 500 random probes.
